Assay results from patent publication US11306156.

Columns and labels:
[1] = target: tissue factor (TF) antigen (UniProt P13726); test: SPR (ProteOn XPR36), His-tagged Fab captured on anti-penta His, TF as analyte, 1:1 fit; batch C (+)
[2] = target: tissue factor (TF) antigen (UniProt P13726); test: SPR (ProteOn XPR36), His-tagged Fab captured on anti-penta His, TF as analyte; against wild-type D3H44 Fab; batch C (+)
[3] = target: tissue factor (TF) antigen (UniProt P13726); test: SPR as for KD; reference: wild-type D3H44 Fab
[4] = target: tissue factor (TF) antigen (UniProt P13726); test: SPR, ProteOn XPR36; His-tagged Fab captured on anti-penta-His, TF injected; 1:1 fit
[5] = target: tissue factor (TF) antigen (UniProt P13726); test: SPR, Fab captured on anti-penta-His surface, TF as analyte, 1:1 fit
[6] = target: tissue factor (TF) antigen (UniProt P13726); test: SPR, Fab captured on anti-penta-His surface, TF as analyte, 1:1 fit; against wild-type D3H44 Fab
[7] = target: tissue factor (TF) antigen (UniProt P13726); test: SPR (ProteOn XPR36): His-tagged Fab captured on anti-penta-His surface, TF as analyte, 1:1 fit; batch C (+)
[8] = target: tissue factor (TF) antigen (UniProt P13726); test: SPR; log change of median KD against wild-type D3H44 Fab
[9] = target: tissue factor (TF) antigen (UniProt P13726); test: SPR, Fab captured by anti-penta-His, TF injected, 1:1 fit

Sequence of tissue factor (TF) antigen (P13726 33-251 limits assumed): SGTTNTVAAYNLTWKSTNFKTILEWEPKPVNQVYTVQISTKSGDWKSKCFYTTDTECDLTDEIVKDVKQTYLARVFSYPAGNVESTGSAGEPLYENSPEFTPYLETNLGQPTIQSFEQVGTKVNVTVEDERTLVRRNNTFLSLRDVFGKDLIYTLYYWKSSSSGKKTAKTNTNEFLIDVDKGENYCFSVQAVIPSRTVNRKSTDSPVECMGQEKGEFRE

D3H44 Fab heterodimer, H1 Q39R_S186R / L1 Q38E_Q124E_Q160E_T180E (H1L1 Fab of LCCA Set # 9828)
Kd [1]: 0.14 nM
Change in median values of KD of h1|1 Fab heterodimer compared to wild type (-(log(KD design)-log(KD wt))) [2]: 0.07

D3H44 Fab heterodimer, H1 S186R / L1 Q38E_Q124E_Q160E_T180E (H1L1 Fab of LCCA Set # 9905)
Kd [1]: 0.1 nM
Change in median values of KD of h1|1 Fab heterodimer compared to wild type (-(log(KD design)-log(KD wt))) [2]: 0.2

D3H44 Fab heterodimer, H1L1 of LCCA Set # 9568 (H1 L124W_L143F; L1 V133A_S176T_T178L)
change in median KD compared to wild type, -(log(KD design)-log(KD wt)) [3]: -0.28
Kd [4]: 0.3 nM

D3H44 Fab heterodimer, H1L1 of LCCA Sets # 9057, 9056 and 9055 (H1 A139G_V190A; L1 L135W_S176L)
change in median KD compared to wild type, -(log(KD design)-log(KD wt)) [3]: -0.02
Kd [4]: 0.16 nM

D3H44 Fab heterodimer, H1L1 of LCCA Sets # 9567 and 9566 (H1 L124W_L143F; L1 V133A)
change in median KD compared to wild type, -(log(KD design)-log(KD wt)) [3]: -0.21
Kd [4]: 0.25 nM

D3H44 Fab heterodimer, H1L1 of LCCA Sets # 9692, 9696, 9688, 9702 and 9700 (H1 L143E_K145T_Q179E_S188L; L1 Q124R_T178R)
change in median KD compared to wild type, -(log(KD design)-log(KD wt)) [3]: -0.34
Kd [4]: 0.34 nM

D3H44 H1L1 Fab heterodimer of LCCA Set # 10549 (H1 L45P_K145T_Q179E; L1 P44F_S131K)
Kd [5]: 0.35 nM
change in median KD compared to wild type, -(log(KD design)-log(KD wt)) [6]: -0.35

D3H44 H1L1 Fab heterodimer of LCCA set 9632 (H1 L143E_K145T_Q179D; L1 Q124R_T178R)
Change in median values of KD of h1|1 Fab heterodimer compared to wild type (-(log(KD design)-log(KD wt))) [7]: 0.04 log units
Kd [7]: 0.14 nM

D3H44 H1L1 Fab heterodimer of LCCA set 9741 (H1 L143R; L1 Q124E_V133E_Q160F)
Change in median values of KD of h1|1 Fab heterodimer compared to wild type (-(log(KD design)-log(KD wt))) [7]: 0.34 log units
Kd [7]: 0.07 nM

D3H44 H1L1 Fab heterodimer of LCCA sets 9911, 9909 and 9907 (H1 S188L; L1 WT)
Change in median values of KD of h1|1 Fab heterodimer compared to wild type (-(log(KD design)-log(KD wt))) [7]: 0.27 log units
Kd [7]: 0.09 nM

H1L1 Fab heterodimer of LCCA set 9058 (D3H44 Fab, H1 A139W_L143E_K145T_Q179E, L1 F116A_Q124R_L135V)
Change in median values of KD of h1l1 Fab heterodimer compared to wild type (-(log(KD design)-log(KD wt))) [8]: 0.12 log units
Kd [9]: 0.12 nM

H1L1 Fab heterodimer of LCCA sets 9078, 9077 and 9076 (D3H44 Fab, H1 H172T_Q179K, L1 Q124E_N137K_Q160E_S174R_T180E)
Change in median values of KD of h1l1 Fab heterodimer compared to wild type (-(log(KD design)-log(KD wt))) [8]: 0.01 log units
Kd [9]: 0.15 nM

H1L1 Fab heterodimer of LCCA sets 9574 and 9573 (D3H44 Fab, H1 L143A_Q179K, L1 Q124E_V133Y_T180E)
Change in median values of KD of h1l1 Fab heterodimer compared to wild type (-(log(KD design)-log(KD wt))) [8]: -0.23 log units
Kd [9]: 0.27 nM

H1L1 Fab heterodimer of LCCA sets 9721, 9720, 9723, 9722, 9725, 9716, 9712 and 9708 (D3H44 Fab, H1 L143E_K145T_S188L, L1 Q124R_Q160K_T178R)
Change in median values of KD of h1l1 Fab heterodimer compared to wild type (-(log(KD design)-log(KD wt))) [8]: -0.19 log units
Kd [9]: 0.24 nM
